Consider one molecule from article PMC8391806 (2021).

The target of the assay is p38α kinase (residues 1–360 of human p38α) (human, UniProt Q16539 1-360). In words: ITC. On the technique in general: In ITC the heat of successive injections is recorded.
p38α kinase (residues 1–360 of human p38α), sequence (Q16539 whole entry, the tested form may be a part): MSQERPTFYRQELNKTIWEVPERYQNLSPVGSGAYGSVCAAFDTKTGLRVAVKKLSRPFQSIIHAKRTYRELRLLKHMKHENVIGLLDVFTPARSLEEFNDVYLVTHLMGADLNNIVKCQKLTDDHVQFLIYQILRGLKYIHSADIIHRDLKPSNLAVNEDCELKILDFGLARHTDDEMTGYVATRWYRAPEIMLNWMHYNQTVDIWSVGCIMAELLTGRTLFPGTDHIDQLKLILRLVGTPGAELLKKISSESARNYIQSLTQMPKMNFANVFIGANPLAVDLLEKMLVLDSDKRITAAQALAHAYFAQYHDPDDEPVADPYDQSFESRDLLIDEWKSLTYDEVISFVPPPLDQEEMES

B1: regulatory domain of MKK4 (residues 12–86) with N-terminal thioredoxin and 6xHis tag, unlabeled, for ITC (domain or fragment)
chain: SGGGSGSGTPGPVGSPAPGHPAVSSMQGKRKALKLNFANPPFKSTARFTLNPNPTGVQNPHIERLRTHSIESSGK
Turning to B1, the Kd turned out to be 4.1 µM.

The Kd is the equilibrium constant for the complex coming apart.
